Earlier results, collected in PMC3433420.
Where two headings read alike, the source gives them in different places.

Key:
Conditions in all cases: cited from earlier work
[1] = target: SYK-NC (Homo sapiens) (UniProt P43405)
[2] = target: GRB7 (Homo sapiens) (UniProt Q14451)
[3] = target: PIK3R1-N (Homo sapiens) (UniProt P27986)
[4] = target: SLA (Homo sapiens) (UniProt Q13239)
[5] = target: BLK (Homo sapiens) (UniProt P51451)
[6] = target: ITK (Homo sapiens) (UniProt Q08881)
[7] = target: ABL2 (Homo sapiens) (UniProt P42684)
Sequence of ABL2 (Homo sapiens) (P42684 168-268): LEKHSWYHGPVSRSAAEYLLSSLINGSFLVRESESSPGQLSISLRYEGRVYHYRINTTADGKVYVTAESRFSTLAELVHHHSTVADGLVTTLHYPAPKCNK

[8] = target: CRK (Homo sapiens) (UniProt P46108)
Sequence of CRK (Homo sapiens) (P46108 8-123): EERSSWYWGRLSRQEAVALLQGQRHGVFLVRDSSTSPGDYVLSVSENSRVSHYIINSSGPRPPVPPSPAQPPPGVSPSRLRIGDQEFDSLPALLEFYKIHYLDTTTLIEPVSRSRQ

[9] = target: PLCG1-NC (Homo sapiens) (UniProt P19174)
Sequence of PLCG1-NC (Homo sapiens) (P19174 545-761): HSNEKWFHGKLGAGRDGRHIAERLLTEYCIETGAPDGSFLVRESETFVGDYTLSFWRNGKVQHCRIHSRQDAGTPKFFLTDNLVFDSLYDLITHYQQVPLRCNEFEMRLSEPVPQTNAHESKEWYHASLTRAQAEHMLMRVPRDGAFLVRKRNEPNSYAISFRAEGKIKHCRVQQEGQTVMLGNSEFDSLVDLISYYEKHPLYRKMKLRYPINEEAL

[10] = target: PTPN11-NC (Homo sapiens) (UniProt Q06124)
[11] = target: PLCG2-NC (Homo sapiens) (UniProt P16885)
Sequence of PLCG2-NC (Homo sapiens) (P16885 527-740): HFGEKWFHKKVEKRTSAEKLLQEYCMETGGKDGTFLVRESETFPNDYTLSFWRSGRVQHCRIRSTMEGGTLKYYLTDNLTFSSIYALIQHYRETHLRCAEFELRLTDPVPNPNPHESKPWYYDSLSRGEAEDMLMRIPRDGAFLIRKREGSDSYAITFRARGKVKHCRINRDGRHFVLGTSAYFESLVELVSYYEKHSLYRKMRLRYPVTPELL

[12] = target: PIK3R3-NC (Homo sapiens) (UniProt Q92569)
[13] = target: LYN (Homo sapiens) (UniProt P07948)
[14] = target: FGR (Homo sapiens) (UniProt P09769)
[15] = target: RASA1-N (Homo sapiens) (UniProt P20936)
Sequence of RASA1-N (Homo sapiens) (P20936 176-446): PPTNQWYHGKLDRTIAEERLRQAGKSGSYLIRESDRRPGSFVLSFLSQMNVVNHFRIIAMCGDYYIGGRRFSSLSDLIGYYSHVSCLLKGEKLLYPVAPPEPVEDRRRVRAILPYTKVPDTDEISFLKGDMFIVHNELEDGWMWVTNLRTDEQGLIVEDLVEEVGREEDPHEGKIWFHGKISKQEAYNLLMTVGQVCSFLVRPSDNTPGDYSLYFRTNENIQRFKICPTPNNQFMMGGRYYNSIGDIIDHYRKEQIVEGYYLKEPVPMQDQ

[16] = target: TENC1 (Homo sapiens) (UniProt Q63HR2)
Sequence of TENC1 (Homo sapiens) (Q63HR2 1135-1252): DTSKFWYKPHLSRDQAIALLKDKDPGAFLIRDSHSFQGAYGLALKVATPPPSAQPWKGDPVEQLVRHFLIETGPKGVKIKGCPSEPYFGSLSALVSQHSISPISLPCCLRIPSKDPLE

[17] = target: VAV1 (Homo sapiens) (UniProt P15498)
Sequence of VAV1 (Homo sapiens) (P15498 666-770): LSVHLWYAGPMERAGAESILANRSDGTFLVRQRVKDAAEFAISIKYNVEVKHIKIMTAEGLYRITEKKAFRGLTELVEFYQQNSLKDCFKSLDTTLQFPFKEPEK

[18] = target: SH2D2A (Homo sapiens) (UniProt Q9NP31)
Sequence of SH2D2A (Homo sapiens) (Q9NP31 90-191): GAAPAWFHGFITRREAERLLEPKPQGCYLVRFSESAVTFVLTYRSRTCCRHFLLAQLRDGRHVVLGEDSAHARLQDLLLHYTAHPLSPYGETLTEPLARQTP

[19] = target: GRB2 (Homo sapiens) (UniProt P62993)
[20] = target: PIK3R1-NC (Homo sapiens) (UniProt P27986)
Sequence of PIK3R1-NC (Homo sapiens) (P27986 328-723): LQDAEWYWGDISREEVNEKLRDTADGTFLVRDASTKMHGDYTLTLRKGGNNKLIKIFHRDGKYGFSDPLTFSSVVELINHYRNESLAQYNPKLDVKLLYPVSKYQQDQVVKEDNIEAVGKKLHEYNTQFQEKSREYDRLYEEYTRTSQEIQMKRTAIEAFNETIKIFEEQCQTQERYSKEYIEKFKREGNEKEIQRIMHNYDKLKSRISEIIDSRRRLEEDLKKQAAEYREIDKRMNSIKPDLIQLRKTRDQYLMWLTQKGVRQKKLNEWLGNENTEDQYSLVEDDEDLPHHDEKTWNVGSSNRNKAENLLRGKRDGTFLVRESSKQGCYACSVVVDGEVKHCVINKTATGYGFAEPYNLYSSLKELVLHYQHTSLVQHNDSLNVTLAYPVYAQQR

[21] = target: ABL1 (Homo sapiens) (UniProt P00519)
Sequence of ABL1 (Homo sapiens) (P00519 122-222): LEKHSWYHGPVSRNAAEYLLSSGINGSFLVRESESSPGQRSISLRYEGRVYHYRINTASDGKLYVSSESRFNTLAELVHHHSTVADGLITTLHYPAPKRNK

[22] = target: SH3BP2 (Homo sapiens) (UniProt P78314)
[23] = target: NCK2 (Homo sapiens) (UniProt O43639)
Sequence of NCK2 (Homo sapiens) (O43639 280-380): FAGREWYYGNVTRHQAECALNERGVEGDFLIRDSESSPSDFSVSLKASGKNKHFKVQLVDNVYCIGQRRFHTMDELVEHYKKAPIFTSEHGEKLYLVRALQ

[24] = target: PIK3R3-N (Homo sapiens) (UniProt Q92569)
[25] = target: TNS3 (Homo sapiens) (UniProt Q68CZ2)
[26] = target: SRC (Homo sapiens) (UniProt P12931)
[27] = target: PIK3R2-NC (Homo sapiens) (UniProt O00459)
Sequence of PIK3R2-NC (Homo sapiens) (O00459 325-721): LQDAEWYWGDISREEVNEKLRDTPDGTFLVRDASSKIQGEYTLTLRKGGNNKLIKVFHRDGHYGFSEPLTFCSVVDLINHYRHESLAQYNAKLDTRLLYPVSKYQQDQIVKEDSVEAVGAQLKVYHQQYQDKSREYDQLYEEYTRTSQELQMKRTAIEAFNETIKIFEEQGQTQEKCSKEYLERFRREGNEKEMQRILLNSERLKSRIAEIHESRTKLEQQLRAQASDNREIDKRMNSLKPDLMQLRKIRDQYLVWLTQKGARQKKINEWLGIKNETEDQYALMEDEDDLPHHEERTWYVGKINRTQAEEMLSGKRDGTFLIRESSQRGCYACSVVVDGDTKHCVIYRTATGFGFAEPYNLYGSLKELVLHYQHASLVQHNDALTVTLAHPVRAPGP

[28] = target: BCAR3 (Homo sapiens) (UniProt O75815)
Sequence of BCAR3 (Homo sapiens) (O75815 149-258): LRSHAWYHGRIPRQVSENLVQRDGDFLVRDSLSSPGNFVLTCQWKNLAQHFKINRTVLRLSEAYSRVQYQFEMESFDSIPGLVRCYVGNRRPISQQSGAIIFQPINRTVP

[29] = target: VAV2 (Homo sapiens) (UniProt P52735)
Sequence of VAV2 (Homo sapiens) (P52735 668-772): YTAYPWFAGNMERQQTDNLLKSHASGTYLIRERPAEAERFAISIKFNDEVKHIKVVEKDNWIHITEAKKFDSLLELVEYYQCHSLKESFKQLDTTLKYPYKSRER

[30] = target: BMX (Homo sapiens) (UniProt P51813)
Sequence of BMX (Homo sapiens) (P51813 291-397): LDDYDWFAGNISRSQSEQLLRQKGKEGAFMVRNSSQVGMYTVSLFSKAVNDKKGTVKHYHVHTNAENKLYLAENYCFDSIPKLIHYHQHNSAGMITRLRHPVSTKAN

[31] = target: CRKL (Homo sapiens) (UniProt P46109)
Sequence of CRKL (Homo sapiens) (P46109 9-107): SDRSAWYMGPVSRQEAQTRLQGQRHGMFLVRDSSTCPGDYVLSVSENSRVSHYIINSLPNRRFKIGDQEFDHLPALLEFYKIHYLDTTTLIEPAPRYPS

[32] = target: GRAP2 (Homo sapiens) (UniProt O75791)
[33] = target: HCK (Homo sapiens) (UniProt P08631)
Sequence of HCK (Homo sapiens) (P08631 139-246): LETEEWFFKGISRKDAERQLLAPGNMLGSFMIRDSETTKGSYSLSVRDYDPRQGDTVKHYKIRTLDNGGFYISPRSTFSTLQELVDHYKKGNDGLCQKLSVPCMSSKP

[34] = target: PIK3R2-N (Homo sapiens) (UniProt O00459)
Sequence of PIK3R2-N (Homo sapiens) (O00459 325-721): as the sequence (O00459 325-721) above

[35] = target: PIK3R3-C (Homo sapiens) (UniProt Q92569)
[36] = target: PLCG1-C (Homo sapiens) (UniProt P19174)
Sequence of PLCG1-C (Homo sapiens) (P19174 545-761): as the sequence (P19174 545-761) above

[37] = target: SYK-NC (Homo sapiens) (UniProt P43405); remark: listed apart in the source
[38] = target: SLA (Homo sapiens) (UniProt Q13239); remark: listed apart in the source
[39] = target: ABL2 (Homo sapiens) (UniProt P42684); remark: listed apart in the source
[40] = target: ABL2 (Homo sapiens) (UniProt P42684); remark: listed apart in the source
[41] = target: CRK (Homo sapiens) (UniProt P46108); remark: listed apart in the source
[42] = target: PLCG1-NC (Homo sapiens) (UniProt P19174); remark: listed apart in the source
[43] = target: PIK3R3-NC (Homo sapiens) (UniProt Q92569); remark: listed apart in the source
[44] = target: VAV3 (Homo sapiens) (UniProt Q9UKW4)
Sequence of VAV3 (Homo sapiens) (Q9UKW4 667-771): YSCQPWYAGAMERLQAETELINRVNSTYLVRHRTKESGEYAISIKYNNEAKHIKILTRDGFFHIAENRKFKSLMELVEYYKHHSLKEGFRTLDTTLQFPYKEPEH

[45] = target: RASA1-N (Homo sapiens) (UniProt P20936); remark: listed apart in the source
[46] = target: RASA1-N (Homo sapiens) (UniProt P20936); remark: listed apart in the source
[47] = target: VAV1 (Homo sapiens) (UniProt P15498); remark: listed apart in the source
[48] = target: NCK2 (Homo sapiens) (UniProt O43639); remark: listed apart in the source
[49] = target: PTPN11-N (Homo sapiens) (UniProt Q06124)
[50] = target: VAV2 (Homo sapiens) (UniProt P52735); remark: listed apart in the source
[51] = target: VAV2 (Homo sapiens) (UniProt P52735); remark: listed apart in the source
[52] = target: CRKL (Homo sapiens) (UniProt P46109); remark: listed apart in the source
[53] = target: PIK3R2-N (Homo sapiens) (UniProt O00459); remark: listed apart in the source
[54] = target: PLCG1-C (Homo sapiens) (UniProt P19174); remark: listed apart in the source

Sequence of SLA (Homo sapiens) (Q13239 79-180): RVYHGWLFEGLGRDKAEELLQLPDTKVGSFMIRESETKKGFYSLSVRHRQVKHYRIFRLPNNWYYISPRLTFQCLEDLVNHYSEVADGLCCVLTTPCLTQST
Sequence of PIK3R1-N (Homo sapiens) (P27986 328-723): as the sequence (P27986 328-723) above
Sequence of GRB7 (Homo sapiens) (Q14451 426-532): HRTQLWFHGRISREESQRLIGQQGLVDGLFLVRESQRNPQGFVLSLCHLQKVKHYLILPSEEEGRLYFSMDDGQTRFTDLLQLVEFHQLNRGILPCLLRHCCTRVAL
Sequence of ITK (Homo sapiens) (Q08881 234-343): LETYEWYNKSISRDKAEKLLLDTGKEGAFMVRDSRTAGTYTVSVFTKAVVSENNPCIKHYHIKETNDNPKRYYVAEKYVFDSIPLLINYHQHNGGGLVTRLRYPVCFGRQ

In the case of …pYVNQPDVR, the apparent Kd (screen) [1] is given as 973 nM, the apparent Kd (screen) [2] is given as 2000 nM and the apparent Kd (screen) [3] is given as 508 nM. For the same substance, the apparent Kd (screen) [4] was 2000 nM, the apparent Kd (screen) [5] was 2000 nM and the apparent Kd (screen) [6] was 1510 nM. The apparent Kd (screen) [7] was 71 nM, the apparent Kd (screen) [8] was 2000 nM and the apparent Kd (screen) [9] was 2000 nM. The apparent Kd (screen) [10] was 877 nM, the apparent Kd (screen) [11] was 1280 nM and the apparent Kd (screen) [12] was 304 nM. The apparent Kd (screen) [13] was 2000 nM, the apparent Kd (screen) [14] was 454 nM and the apparent Kd (screen) [15] was 675 nM. For the same substance, the apparent Kd (screen) [16] was 565 nM, the apparent Kd (screen) [17] was 206 nM and the apparent Kd (screen) [18] was 980 nM. The apparent Kd (screen) [19] was 76 nM, the apparent Kd (screen) [20] was 741 nM and the apparent Kd (screen) [21] was 157 nM. For the same substance, the apparent Kd (screen) [22] was 406 nM, the apparent Kd (screen) [23] was 777 nM and the apparent Kd (screen) [24] was 395 nM. The apparent Kd (screen) [25] was 765 nM, the apparent Kd (screen) [26] was 2000 nM and the apparent Kd (screen) [27] was 776 nM. The apparent Kd (screen) [28] was 1000 nM, the apparent Kd (screen) [29] was 226 nM and the apparent Kd (screen) [30] was 520 nM. For the same substance, the apparent Kd (screen) [31] was 2000 nM, the apparent Kd (screen) [32] was 958 nM and the apparent Kd (screen) [33] was 2000 nM. For the same substance, the apparent Kd (screen) [34] was 281 nM, the apparent Kd (screen) [35] was 1220 nM and the apparent Kd (screen) [36] was 1930 nM.

In the case of …pYLNPVEENd, the apparent Kd (screen) [37] is listed as 2000 nM, the apparent Kd (screen) [38] is listed as 2000 nM and the apparent Kd (screen) [39] is listed as 283 nM. The apparent Kd (screen) [40] was 316 nM, the apparent Kd (screen) [41] was 2000 nM and the apparent Kd (screen) [42] was 2000 nM. The apparent Kd (screen) [43] was 2000 nM, the apparent Kd (screen) [44] was 2000 nM and the apparent Kd (screen) [45] was 983 nM. The apparent Kd (screen) [46] was 2000 nM, the apparent Kd (screen) [47] was 2000 nM and the apparent Kd (screen) [48] was 2000 nM. For the same substance, the apparent Kd (screen) [49] was 2000 nM, the apparent Kd (screen) [50] was 100 nM and the apparent Kd (screen) [51] was 2000 nM. For the same substance, the apparent Kd (screen) [52] was 2000 nM, the apparent Kd (screen) [53] was 2000 nM and the apparent Kd (screen) [54] was 2000 nM.
